Data from PMC8199036, “Improved Tumor-Targeting with Peptidomimetic Analogs of Minigastrin ^177Lu-PP-F11N” (Cancers, 2021).
Where “and” joins values, the source holds several entries; their conditions need not be identical. Identical values can stand only once. Like-named read-outs stand apart in the source and are kept apart here.

Columns and labels:
[1] = biodistribution in mice with CCK2R-positive xenografts; type: in vivo, female CD1-nu mice; conditions: female, CD1-nu, mouse, in vivo, total radioactivity; for tissue uptake at 1 h: 1 h p.i.; for tissue uptake at 24 h: 24 h p.i.
Method: (§1) Procedures for biodistribution studies with ^177Lu-labeled conjugates (10 pmol, 100 µL, 0.1 µM in PBS, 0.5 MBq, 1 µg/kg) in female CD1-nu mice with xenografts of A431-CCK2R cells at 1, 4, and 24 h p.i., as well as blocking experiments at 4 h p.i. with a 6000-fold excess of minigastrin have been reported previously and were followed without modifications. Statistical analysis was performed via GraphPad Prism using two-sided analysis of variance. n = 4 animals per group.

[2] = test system: xenografts of A431-CCK2R cells; test: as above; type: in vivo, female CD1-nu mice
Method: as §1

[3] = design: method as in PMID 30608664; conditions: 177Lu-labeled; mouse blood, 10 min p.i.; reported previously; cited from earlier work
[4] = design: method as in PMID 30608664; conditions: 177Lu-labeled; 24 h incubation, human blood plasma; reported previously; cited from earlier work
[5] = 10 pmol, read-out: Heart uptake
[6] = 10 pmol, read-out: Intestines uptake
[7] = 10 pmol, read-out: Kidneys uptake
[8] = 10 pmol, read-out: Liver uptake
[9] = 10 pmol, read-out: Pancreas uptake
[10] = 10 pmol, read-out: Spleen uptake
[11] = 10 pmol, read-out: Stomach (CCK2R-positive) uptake
[12] = 10 pmol, read-out: Tumor (CCK2R-positive) uptake

Which tissue uptake at 1 h ([1]; 10 pmol, read-out: Bone uptake) does the source give for `CCCC[C@H](NC(=O)[C@H](Cc1c[nH]c2ccccc12)NC(=O)CNC(=O)[C@H](Cc1ccc(O)cc1)NC(=O)[C@H](C)NC(=O)[C@@H](CCC(=O)O)NC(=O)[C@@H](CCC(=O)O)NC(=O)[C@@H](CCC(=O)O)NC(=O)[C@@H](CCC(=O)O)NC(=O)[C@@H](CCC(=O)O)NC(=O)[C@@H](CCC(=O)O)NC(=O)CN1CCN(CC(=O)O)CCN(CC(=O)O)CCN(CC(=O)O)CC1)C(=O)N[C@@H](CC(=O)O)C(=O)N[C@@H](Cc1ccccc1)C(N)=O` [PP-F11N, DOTA-(DGlu)6-Ala-Tyr-Gly-Trp-Nle-Asp-Phe-NH2] here?
The tissue uptake at 1 h was 0.88 %ID/g.

What about the tissue uptake at 1 h [1, 5] of the same compound?
The tissue uptake at 1 h was 0.08 %ID/g.

What about the tissue uptake at 1 h [1, 6] of the same compound?
The tissue uptake at 1 h was 0.12 %ID/g.

And the tissue uptake at 1 h [1, 7]?
The tissue uptake at 1 h was 2.75 %ID/g.

What about the tissue uptake at 1 h [1, 8] of the same compound?
The tissue uptake at 1 h was 0.09 %ID/g.

What about the tissue uptake at 1 h ([1]; 10 pmol, read-out: Lung uptake) of the same compound?
Its tissue uptake at 1 h is 0.16 %ID/g.

And the tissue uptake at 1 h ([1]; 10 pmol, read-out: Muscle uptake)?
Its tissue uptake at 1 h is 0.13 %ID/g.

What about the tissue uptake at 1 h [1, 9] of the same compound?
The tissue uptake at 1 h was 0.18 %ID/g.

What about the tissue uptake at 1 h [1, 10] of the same compound?
Its tissue uptake at 1 h is 0.06 %ID/g.

And the tissue uptake at 1 h [1, 11]?
The tissue uptake at 1 h was 1.02 %ID/g.

What about the tissue uptake at 1 h [1, 12] of the same compound?
Its tissue uptake at 1 h is 6.92 %ID/g.

What about the tissue uptake at 4 h ([1]; 10 pmol, 4 h (blocked), excess minigastrin, read-out: Bone uptake) of the same compound?
The tissue uptake at 4 h was 0.15 %ID/g.

What about the tissue uptake at 4 h ([1]; 10 pmol, 4 h (blocked), excess minigastrin, read-out: Muscle uptake) of the same compound?
Its tissue uptake at 4 h is 0.01 %ID/g.

And the tissue uptake at 4 h ([1]; 10 pmol, 4 h p.i., read-out: Blood uptake)?
The tissue uptake at 4 h was 0.01 %ID/g.

And the tissue uptake at 4 h ([1]; 10 pmol, 4 h p.i., read-out: Bone uptake)?
The tissue uptake at 4 h was 0.22 %ID/g.

What about the tissue uptake at 4 h ([1]; 10 pmol, 4 h p.i., read-out: Heart uptake) of the same compound?
The tissue uptake at 4 h was 0.03 %ID/g.

And the tissue uptake at 4 h ([1]; 10 pmol, 4 h p.i., read-out: Intestines uptake)?
The tissue uptake at 4 h was 0.05 %ID/g.

And the tissue uptake at 4 h ([1]; 10 pmol, 4 h p.i., read-out: Kidneys uptake)?
The tissue uptake at 4 h was 2.42 %ID/g.

And the tissue uptake at 4 h ([1]; 10 pmol, 4 h p.i., read-out: Liver uptake)?
The tissue uptake at 4 h was 0.06 %ID/g.

And the tissue uptake at 4 h ([1]; 10 pmol, 4 h p.i., read-out: Lung uptake)?
Its tissue uptake at 4 h is 0.03 %ID/g.

And the tissue uptake at 4 h ([1]; 10 pmol, 4 h p.i., read-out: Muscle uptake)?
The tissue uptake at 4 h was 0.02 %ID/g.

What about the tissue uptake at 4 h ([1]; 10 pmol, 4 h p.i., read-out: Pancreas uptake) of the same compound?
Its tissue uptake at 4 h is 0.09 %ID/g.

What about the tissue uptake at 4 h ([1]; 10 pmol, 4 h p.i., read-out: Spleen uptake) of the same compound?
Its tissue uptake at 4 h is 0.03 %ID/g.

What about the tissue uptake at 4 h ([1]; 10 pmol, 4 h p.i., read-out: Stomach (CCK2R-positive) uptake) of the same compound?
The tissue uptake at 4 h was 1.04 %ID/g.

What about the tissue uptake at 4 h ([1]; 10 pmol, 4 h p.i., read-out: Tumor (CCK2R-positive) uptake) of the same compound?
Its tissue uptake at 4 h is 4.07 %ID/g.

What about the tissue uptake at 24 h ([1]; 10 pmol, read-out: Bone uptake) of the same compound?
Its tissue uptake at 24 h is 0.1 %ID/g.

What about the tissue uptake at 24 h [1, 5] of the same compound?
The tissue uptake at 24 h was 0.01 %ID/g.

And the tissue uptake at 24 h [1, 6]?
The tissue uptake at 24 h was 0.03 %ID/g.

What about the tissue uptake at 24 h [1, 7] of the same compound?
Its tissue uptake at 24 h is 1.72 %ID/g.

What about the tissue uptake at 24 h [1, 8] of the same compound?
Its tissue uptake at 24 h is 0.04 %ID/g.

And the tissue uptake at 24 h ([1]; 10 pmol, read-out: Lung uptake)?
Its tissue uptake at 24 h is 0.02 %ID/g.

And the tissue uptake at 24 h [1, 9]?
Its tissue uptake at 24 h is 0.08 %ID/g.

And the tissue uptake at 24 h [1, 10]?
The tissue uptake at 24 h was 0.02 %ID/g.

What about the tissue uptake at 24 h [1, 11] of the same compound?
The tissue uptake at 24 h was 0.67 %ID/g.

What about the tissue uptake at 24 h [1, 12] of the same compound?
Its tissue uptake at 24 h is 2.73 %ID/g.

What about the tissue uptake at 4 h ([1]; 4 h (blocked), excess minigastrin, read-out: Blood uptake) of the same compound?
The tissue uptake at 4 h was 0.01 %ID/g.

And the tissue uptake at 4 h ([1]; 4 h (blocked), excess minigastrin, read-out: Heart uptake)?
Its tissue uptake at 4 h is 0.02 %ID/g.

What about the tissue uptake at 4 h ([1]; 4 h (blocked), excess minigastrin, read-out: Intestines uptake) of the same compound?
Its tissue uptake at 4 h is 0.03 %ID/g.

What about the tissue uptake at 4 h ([1]; 4 h (blocked), excess minigastrin, read-out: Kidneys uptake) of the same compound?
The tissue uptake at 4 h was 2.57 %ID/g.

What about the tissue uptake at 4 h ([1]; 4 h (blocked), excess minigastrin, read-out: Liver uptake) of the same compound?
The tissue uptake at 4 h was 0.07 %ID/g.

What about the tissue uptake at 4 h ([1]; 4 h (blocked), excess minigastrin, read-out: Lung uptake) of the same compound?
The tissue uptake at 4 h was 0.04 %ID/g.

What about the tissue uptake at 4 h ([1]; 4 h (blocked), excess minigastrin, read-out: Pancreas uptake) of the same compound?
Its tissue uptake at 4 h is 0.04 %ID/g.

What about the tissue uptake at 4 h ([1]; 4 h (blocked), excess minigastrin, read-out: Spleen uptake) of the same compound?
The tissue uptake at 4 h was 0.04 %ID/g.

And the tissue uptake at 4 h ([1]; 4 h (blocked), excess minigastrin, read-out: Stomach (CCK2R-positive) uptake)?
The tissue uptake at 4 h was 0.12 %ID/g.

And the tissue uptake at 4 h ([1]; 4 h (blocked), excess minigastrin, read-out: Tumor (CCK2R-positive) uptake)?
The tissue uptake at 4 h was 1.3 %ID/g.

What about the “Tumor (CCK2R-positive) uptake” value ([2]; 1 h p.i.) of the same compound?
Its value is 6.92 ± 2.21 % i.A./g.

And the “Tumor (CCK2R-positive) uptake” value ([2]; 4 h p.i.)?
Its value is 4.07 ± 1.40 % i.A./g.

What about the “Tumor (CCK2R-positive) uptake” value ([2]; 24 h p.i.) of the same compound?
Its value is 2.73 ± 0.84 % i.A./g and 2.7 ± 0.8 % i.A./g.

What about the “Intact Compound In Vivo (%), 10 min” value [3] of the same compound?
Its value is 43% and 43.1 ± 2.7%.

What about the “Intact Compound In Vitro (%), 24 h, Blood Plasma” value [4] of the same compound?
Its value is 98.1 ± 0.9%.
